Test results published in paper PMC6713926.
Several values for one entry are separate records, joined by “and”; a condition that tells them apart may be missing. Equal values may be shown once.

Molecular target: Biotinylated C3b (human) (UniProt P01024)
Experiment: BLI; biotinylated C3b on streptavidin sensors; FPht variants at 100 to 1.56 μg/mL, 60 s steps; 30°C; 20 mM MES pH 6.0, 100 mM NaCl, 0.05% Tween, 1 mg/mL BSA; steady state 1:1 fit (for WT also kinetic analysis)

Chain of Biotinylated C3b (human) (P01024 23-667, chain 1 of 2): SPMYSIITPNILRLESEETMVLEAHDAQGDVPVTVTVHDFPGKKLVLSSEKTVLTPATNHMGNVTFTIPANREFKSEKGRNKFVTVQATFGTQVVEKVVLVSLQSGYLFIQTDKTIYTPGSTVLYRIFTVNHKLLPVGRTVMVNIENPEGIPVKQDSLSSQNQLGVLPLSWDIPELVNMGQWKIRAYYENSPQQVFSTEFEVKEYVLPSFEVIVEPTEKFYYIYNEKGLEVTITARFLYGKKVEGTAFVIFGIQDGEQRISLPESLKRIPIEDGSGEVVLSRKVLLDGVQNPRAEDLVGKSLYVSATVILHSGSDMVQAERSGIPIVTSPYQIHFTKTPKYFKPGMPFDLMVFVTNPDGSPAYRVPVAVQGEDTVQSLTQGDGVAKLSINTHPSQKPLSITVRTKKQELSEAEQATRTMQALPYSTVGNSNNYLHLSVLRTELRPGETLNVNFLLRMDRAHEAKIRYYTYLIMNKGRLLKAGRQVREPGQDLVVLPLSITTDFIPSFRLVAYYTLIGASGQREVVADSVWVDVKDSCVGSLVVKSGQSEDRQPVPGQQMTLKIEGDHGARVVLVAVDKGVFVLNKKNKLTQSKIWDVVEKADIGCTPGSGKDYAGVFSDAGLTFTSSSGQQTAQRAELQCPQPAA
Chain of Biotinylated C3b (human) (P01024 749-1663, chain 2 of 2): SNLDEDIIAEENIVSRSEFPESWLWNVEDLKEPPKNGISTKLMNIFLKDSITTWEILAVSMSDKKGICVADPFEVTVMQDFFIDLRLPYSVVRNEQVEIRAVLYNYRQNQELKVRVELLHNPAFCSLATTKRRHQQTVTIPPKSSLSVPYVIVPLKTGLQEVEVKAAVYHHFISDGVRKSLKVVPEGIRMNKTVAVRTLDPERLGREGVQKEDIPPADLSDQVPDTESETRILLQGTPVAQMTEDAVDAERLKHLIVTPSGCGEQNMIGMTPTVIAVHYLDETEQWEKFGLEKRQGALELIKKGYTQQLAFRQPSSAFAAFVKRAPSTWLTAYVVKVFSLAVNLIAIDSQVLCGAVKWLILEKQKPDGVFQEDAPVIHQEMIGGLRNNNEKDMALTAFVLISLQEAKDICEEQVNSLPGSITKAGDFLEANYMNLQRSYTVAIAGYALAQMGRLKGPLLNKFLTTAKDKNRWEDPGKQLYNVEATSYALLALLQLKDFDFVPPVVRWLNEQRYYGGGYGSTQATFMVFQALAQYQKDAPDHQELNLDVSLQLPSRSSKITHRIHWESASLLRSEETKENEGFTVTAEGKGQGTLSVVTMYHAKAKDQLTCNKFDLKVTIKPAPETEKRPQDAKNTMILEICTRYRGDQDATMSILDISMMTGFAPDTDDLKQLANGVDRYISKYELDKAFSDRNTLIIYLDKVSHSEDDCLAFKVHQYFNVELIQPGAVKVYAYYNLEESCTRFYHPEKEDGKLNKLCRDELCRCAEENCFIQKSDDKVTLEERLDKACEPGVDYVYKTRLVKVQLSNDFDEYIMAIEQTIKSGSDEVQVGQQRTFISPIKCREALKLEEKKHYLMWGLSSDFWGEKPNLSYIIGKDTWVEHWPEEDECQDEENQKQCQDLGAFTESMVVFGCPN

**Q.** “FPht, monomeric FP head-tail protein from co-expression of FPh and FPt (complex)” was tested. Which Kd did it give?
**A.** The Kd was 320 nM and 350 nM.
